Measurements reported in paper PMC4338524 (Nature communications, 2014).
Each block holds one binder with its values, some of them ahead of it.

Legend:
[1] = biological target: T1, E. coli MinCD copolymeric filaments (pre-formed) (E. coli, UniProt P18196;P0AEZ3); experiment: electron cryotomography of decorated liposomes
T1 sequence 1: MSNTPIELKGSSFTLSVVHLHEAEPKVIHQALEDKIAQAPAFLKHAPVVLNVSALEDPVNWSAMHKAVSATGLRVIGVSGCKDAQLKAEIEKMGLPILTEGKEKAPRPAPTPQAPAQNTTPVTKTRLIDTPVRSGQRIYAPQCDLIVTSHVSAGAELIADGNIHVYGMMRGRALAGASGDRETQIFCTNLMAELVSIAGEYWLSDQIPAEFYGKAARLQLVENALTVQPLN
T1 sequence 2: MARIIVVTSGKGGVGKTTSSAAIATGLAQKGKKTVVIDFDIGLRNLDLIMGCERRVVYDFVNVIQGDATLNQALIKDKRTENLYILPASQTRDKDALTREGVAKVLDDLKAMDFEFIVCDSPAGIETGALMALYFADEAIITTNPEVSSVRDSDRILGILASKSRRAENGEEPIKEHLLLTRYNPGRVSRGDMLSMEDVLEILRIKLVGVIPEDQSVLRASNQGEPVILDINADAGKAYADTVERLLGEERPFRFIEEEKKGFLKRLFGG

co-sedimentation = biological target: the molecule itself; experiment: co-sedimentation
[2] = biological target: T2, E. coli MinD, full-length, untagged (E. coli, UniProt P0AEZ3 1-270); experiment: 90° angle light scattering
T2 sequence: T1 sequence 2

- binding result [1]: binds
B1: E. coli FtsZ (natural protein)
chain: MFEPMELTNDAVIKVIGVGGGGGNAVEHMVRERIEGVEFFAVNTDAQALRKTAVGQTIQIGSGITKGLGAGANPEVGRNAADEDRDALRAALEGADMVFIAAGMGGGTGTGAAPVVAEVAKDLGILTVAVVTKPFNFEGKKRMAFAEQGITELSKHVDSLITIPNDKLLKVLGRGISLLDAFGAANDVLKGAVQGIAELITRPGLMNVDFADVRTVMSEMGYAMMGSGVASGEDRAEEAAEMAISSPLLEDIDLSGARGVLVNITAGFDLRLDEFETVGNTIRAFASDNATVVIGTSLDPDMNDELRVTVVATGIGMDKRPEITLVTNKQVQQPVMDRYQQHGMAPLTQEQKPVAKVVNDNAPQTAKEPDYLDIPAFLRKQAD
- binding result (co-sedimentation): binds

- binding result [2]: binds
B2: E. coli MinE, full length (natural protein)
chain: MALLDFFLSRKKNTANIAKERLQIIVAERRRSDAEPHYLPQLRKDILEVICKYVQIDPEMVTVQLEQKDGDISILELNVTLPEAEELK
